# According to article PMC9482650, “Quantitative fragmentomics allow affinity mapping of interactomes” (Nature Communications, 2022):
# Where a chain is given by its changes, count along the chain named.
# T1: LIN7B, Q9HAP6
# T1 sequence (Q9HAP6 88-185, limits assumed, looked up): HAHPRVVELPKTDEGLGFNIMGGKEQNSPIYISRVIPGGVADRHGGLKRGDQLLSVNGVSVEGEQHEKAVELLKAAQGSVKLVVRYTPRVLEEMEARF
# T2: NHERF3_3, Q5T2W1
# T2 sequence (Q5T2W1 238-333, limits assumed, looked up): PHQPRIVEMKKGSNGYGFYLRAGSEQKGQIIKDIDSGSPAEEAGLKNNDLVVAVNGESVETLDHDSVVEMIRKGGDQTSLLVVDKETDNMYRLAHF
# T3: APBA2_2, Q99767
# T3 sequence (Q99767 654-744, limits assumed, looked up): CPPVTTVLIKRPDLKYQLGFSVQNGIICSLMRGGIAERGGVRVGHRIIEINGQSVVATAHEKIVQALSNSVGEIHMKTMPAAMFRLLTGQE
# T4: LIN7C, Q9NUP9
# T4 sequence (Q9NUP9 88-185, limits assumed, looked up): T1 sequence (Q9HAP6 88-185, limits assumed, looked up) with A2S, D13E, V35I, V40I, Q65H, S79K, R89K, A96S
# T5: MPDZ_5, O75970
# T5 sequence (O75970 695-796, limits assumed, looked up): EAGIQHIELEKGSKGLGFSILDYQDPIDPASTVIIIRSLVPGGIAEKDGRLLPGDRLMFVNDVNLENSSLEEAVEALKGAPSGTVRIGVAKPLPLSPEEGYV
# T6: APBA3_1, O96018
# T6 sequence (O96018 389-490, limits assumed, looked up): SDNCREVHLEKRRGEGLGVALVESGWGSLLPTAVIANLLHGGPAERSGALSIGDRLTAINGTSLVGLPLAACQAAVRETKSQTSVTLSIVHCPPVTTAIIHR
# T7: PDZD7_3, Q9H5P4
# T7 sequence (Q9H5P4 857-944, limits assumed, looked up): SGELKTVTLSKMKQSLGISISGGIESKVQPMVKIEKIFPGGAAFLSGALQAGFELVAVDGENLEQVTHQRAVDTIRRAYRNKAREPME
# T8: GRIP1_4, Q9Y3R0
# T8 sequence (Q9Y3R0 467-571, limits assumed, looked up): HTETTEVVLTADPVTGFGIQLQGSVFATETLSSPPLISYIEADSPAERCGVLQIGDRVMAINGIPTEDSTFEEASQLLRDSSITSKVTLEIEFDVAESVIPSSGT
# T9: HTRA3, P83110
# T9 sequence (P83110 354-453, limits assumed, looked up): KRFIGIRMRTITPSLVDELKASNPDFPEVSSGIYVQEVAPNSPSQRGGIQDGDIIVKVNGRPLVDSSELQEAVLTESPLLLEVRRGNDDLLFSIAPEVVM
# B1: ADGRG1, Q9Y653 (peptide)
# chain: SSGSTSSSRI
# B2: DUSP10, Q9Y6W6 (peptide)
# chain: PKLMGVETVV
# B3: ITK, Q08881 (peptide)
# chain: QLAEIAESGL
# Molecular target: PDZRN4_1, Q6ZMN7
# Assay: holdup assay
# Set-up: key: below the threshold = too weak to quantify, mostly under pKd 3.1 to 4
# Details: plain residues with an end cap or a label only (N-terminal biotin on a linker: ado-ado)
# Chain of PDZRN4_1, Q6ZMN7 (Q6ZMN7 213-318): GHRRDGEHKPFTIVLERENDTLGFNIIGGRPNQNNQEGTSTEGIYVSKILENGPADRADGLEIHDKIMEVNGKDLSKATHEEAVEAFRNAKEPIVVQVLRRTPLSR
row,Binder,pKd
1,B1,below the threshold
2,B2,3.7
3,B3,3.91

# Molecular target: LDB3, O75112
# Assay: holdup assay
# Set-up: key: below the threshold = too weak to quantify, mostly under pKd 3.1 to 4
# Details: plain residues with an end cap or a label only (N-terminal biotin on a linker: ado-ado)
# Chain of LDB3, O75112 (O75112 1-94): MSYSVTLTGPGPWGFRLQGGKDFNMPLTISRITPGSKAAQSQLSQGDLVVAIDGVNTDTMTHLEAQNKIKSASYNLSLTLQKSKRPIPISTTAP
row,Binder,pKd
1,B1,below the threshold
2,B2,below the threshold
3,B3,below the threshold

# Molecular target: T1, LIN7B, Q9HAP6
# Assay: holdup assay
# Set-up: key: below the threshold = too weak to quantify, mostly under pKd 3.1 to 4
# Details: plain residues with an end cap or a label only (N-terminal biotin on a linker: ado-ado)
row,Binder,pKd
1,B1,3.82
2,B2,below the threshold
3,B3,below the threshold

# Molecular target: GRIP2_7, Q9C0E4
# Assay: holdup assay
# Set-up: key: below the threshold = too weak to quantify, mostly under pKd 3.1 to 4
# Details: plain residues with an end cap or a label only (N-terminal biotin on a linker: ado-ado)
# Chain of GRIP2_7, Q9C0E4 (Q9C0E4 934-1023): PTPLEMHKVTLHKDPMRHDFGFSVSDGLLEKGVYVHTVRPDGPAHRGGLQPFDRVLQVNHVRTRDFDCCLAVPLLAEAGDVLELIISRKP
row,Binder,pKd
1,B1,below the threshold
2,B2,below the threshold
3,B3,3.47

# Molecular target: Inadl_5, Q8NI35
# Assay: holdup assay
# Set-up: key: below the threshold = too weak to quantify, mostly under pKd 3.1 to 4
# Details: plain residues with an end cap or a label only (N-terminal biotin on a linker: ado-ado)
# Chain of Inadl_5, Q8NI35 (Q8NI35 673-780): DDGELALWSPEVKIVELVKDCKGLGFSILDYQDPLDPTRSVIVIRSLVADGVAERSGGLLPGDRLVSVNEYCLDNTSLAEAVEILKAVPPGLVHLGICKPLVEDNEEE
row,Binder,pKd
1,B1,below the threshold
2,B2,3.56
3,B3,3.58

# Molecular target: T2, NHERF3_3, Q5T2W1
# Assay: holdup assay
# Set-up: key: below the threshold = too weak to quantify, mostly under pKd 3.1 to 4
# Details: plain residues with an end cap or a label only (N-terminal biotin on a linker: ado-ado)
row,Binder,pKd
1,B1,below the threshold
2,B2,below the threshold
3,B3,below the threshold

# Molecular target: Inadl_10, Q8NI35
# Assay: holdup assay
# Set-up: key: below the threshold = too weak to quantify, mostly under pKd 3.1 to 4
# Details: plain residues with an end cap or a label only (N-terminal biotin on a linker: ado-ado)
# Chain of Inadl_10, Q8NI35 (Q8NI35 1673-1763): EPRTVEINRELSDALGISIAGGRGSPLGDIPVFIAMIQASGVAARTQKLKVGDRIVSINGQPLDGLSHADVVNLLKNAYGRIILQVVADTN
row,Binder,pKd
1,B1,below the threshold
2,B2,below the threshold
3,B3,below the threshold

# Molecular target: MAGI2_4, Q86UL8
# Assay: holdup assay
# Set-up: key: below the threshold = too weak to quantify, mostly under pKd 3.1 to 4
# Details: plain residues with an end cap or a label only (N-terminal biotin on a linker: ado-ado)
# Chain of MAGI2_4, Q86UL8 (Q86UL8 772-865): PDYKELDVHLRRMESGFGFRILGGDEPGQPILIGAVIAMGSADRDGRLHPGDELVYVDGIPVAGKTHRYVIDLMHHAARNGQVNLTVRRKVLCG
row,Binder,pKd
1,B1,3.77
2,B2,4.14
3,B3,below the threshold

# Molecular target: T3, APBA2_2, Q99767
# Assay: holdup assay
# Set-up: key: below the threshold = too weak to quantify, mostly under pKd 3.1 to 4
# Details: plain residues with an end cap or a label only (N-terminal biotin on a linker: ado-ado)
row,Binder,pKd
1,B1,below the threshold
2,B2,below the threshold
3,B3,3.48

# Molecular target: T4, LIN7C, Q9NUP9
# Assay: holdup assay
# Set-up: key: below the threshold = too weak to quantify, mostly under pKd 3.1 to 4
# Details: plain residues with an end cap or a label only (N-terminal biotin on a linker: ado-ado)
row,Binder,pKd
1,B1,below the threshold
2,B2,3.81
3,B3,below the threshold

# Molecular target: T5, MPDZ_5, O75970
# Assay: holdup assay
# Set-up: key: below the threshold = too weak to quantify, mostly under pKd 3.1 to 4
# Details: plain residues with an end cap or a label only (N-terminal biotin on a linker: ado-ado)
row,Binder,pKd
1,B1,below the threshold
2,B2,3.58
3,B3,3.6

# Molecular target: FRMPD3, Q5JV73
# Assay: holdup assay
# Set-up: key: below the threshold = too weak to quantify, mostly under pKd 3.1 to 4
# Details: plain residues with an end cap or a label only (N-terminal biotin on a linker: ado-ado)
# Chain of FRMPD3, Q5JV73 (Q5JV73 12-100): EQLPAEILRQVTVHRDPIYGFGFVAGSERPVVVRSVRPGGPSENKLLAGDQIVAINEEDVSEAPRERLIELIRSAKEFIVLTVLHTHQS
row,Binder,pKd
1,B1,below the threshold
2,B2,below the threshold
3,B3,below the threshold

# Molecular target: MAGI2_3, Q86UL8
# Assay: holdup assay
# Set-up: key: below the threshold = too weak to quantify, mostly under pKd 3.1 to 4
# Details: plain residues with an end cap or a label only (N-terminal biotin on a linker: ado-ado)
# Chain of MAGI2_3, Q86UL8 (Q86UL8 600-682): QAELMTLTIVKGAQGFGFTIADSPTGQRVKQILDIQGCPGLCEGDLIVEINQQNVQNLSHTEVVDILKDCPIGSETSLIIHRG
row,Binder,pKd
1,B1,below the threshold
2,B2,4.17
3,B3,3.58

# Molecular target: LAP2, Q96RT1
# Assay: holdup assay
# Set-up: key: below the threshold = too weak to quantify, mostly under pKd 3.1 to 4
# Details: plain residues with an end cap or a label only (N-terminal biotin on a linker: ado-ado)
# Chain of LAP2, Q96RT1 (Q96RT1 other isoform, or with tags, fused parts or gaps): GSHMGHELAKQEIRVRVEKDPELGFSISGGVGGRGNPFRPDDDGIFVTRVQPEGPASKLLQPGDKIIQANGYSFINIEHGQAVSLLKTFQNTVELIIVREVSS
row,Binder,pKd
1,B1,below the threshold
2,B2,4.03
3,B3,below the threshold

# Molecular target: PDLIM1, O00151
# Assay: holdup assay
# Set-up: key: below the threshold = too weak to quantify, mostly under pKd 3.1 to 4
# Details: plain residues with an end cap or a label only (N-terminal biotin on a linker: ado-ado)
# Chain of PDLIM1, O00151 (O00151 1-87): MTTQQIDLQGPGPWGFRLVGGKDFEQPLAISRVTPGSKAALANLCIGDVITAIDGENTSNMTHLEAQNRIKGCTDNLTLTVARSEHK
row,Binder,pKd
1,B1,below the threshold
2,B2,below the threshold
3,B3,3.56

# Molecular target: IL16_4, Q14005
# Assay: holdup assay
# Set-up: key: below the threshold = too weak to quantify, mostly under pKd 3.1 to 4
# Details: plain residues with an end cap or a label only (N-terminal biotin on a linker: ado-ado)
# Chain of IL16_4, Q14005 (Q14005 1229-1329): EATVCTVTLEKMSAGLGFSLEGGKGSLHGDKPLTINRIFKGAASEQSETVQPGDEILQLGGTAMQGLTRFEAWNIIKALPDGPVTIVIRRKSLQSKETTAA
row,Binder,pKd
1,B1,3.63
2,B2,below the threshold
3,B3,3.8

# Molecular target: HTRA1, Q92743
# Assay: holdup assay
# Set-up: key: below the threshold = too weak to quantify, mostly under pKd 3.1 to 4
# Details: plain residues with an end cap or a label only (N-terminal biotin on a linker: ado-ado)
# Chain of HTRA1, Q92743 (Q92743 360-477): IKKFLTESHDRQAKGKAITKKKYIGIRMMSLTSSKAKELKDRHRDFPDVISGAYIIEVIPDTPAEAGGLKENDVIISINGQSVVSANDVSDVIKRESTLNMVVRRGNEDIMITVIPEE
row,Binder,pKd
1,B1,below the threshold
2,B2,4.6
3,B3,below the threshold

# Molecular target: IL16_1, Q14005
# Assay: holdup assay
# Set-up: key: below the threshold = too weak to quantify, mostly under pKd 3.1 to 4
# Details: plain residues with an end cap or a label only (N-terminal biotin on a linker: ado-ado)
# Chain of IL16_1, Q14005 (Q14005 210-306): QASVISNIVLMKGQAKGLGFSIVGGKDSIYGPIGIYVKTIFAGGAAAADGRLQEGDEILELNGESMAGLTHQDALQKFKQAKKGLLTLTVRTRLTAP
row,Binder,pKd
1,B1,below the threshold
2,B2,4.38
3,B3,3.48

# Molecular target: DLG4_3, P78352
# Assay: holdup assay
# Set-up: key: below the threshold = too weak to quantify, mostly under pKd 3.1 to 4
# Details: plain residues with an end cap or a label only (N-terminal biotin on a linker: ado-ado)
# Chain of DLG4_3, P78352 (P78352 306-403): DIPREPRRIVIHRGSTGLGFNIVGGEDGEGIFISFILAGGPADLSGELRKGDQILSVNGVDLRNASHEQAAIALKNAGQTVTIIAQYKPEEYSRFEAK
row,Binder,pKd
1,B1,below the threshold
2,B2,4.01
3,B3,3.62

# Molecular target: AHNAK1, Q09666
# Assay: holdup assay
# Set-up: key: below the threshold = too weak to quantify, mostly under pKd 3.1 to 4
# Details: plain residues with an end cap or a label only (N-terminal biotin on a linker: ado-ado)
# Chain of AHNAK1, Q09666 (Q09666 4-100): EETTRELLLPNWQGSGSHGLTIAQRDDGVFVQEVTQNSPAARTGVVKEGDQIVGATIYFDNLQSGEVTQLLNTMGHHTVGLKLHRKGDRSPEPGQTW
row,Binder,pKd
1,B1,below the threshold
2,B2,below the threshold
3,B3,below the threshold

# Molecular target: LNX1_3, Q8TBB1
# Assay: holdup assay
# Set-up: key: below the threshold = too weak to quantify, mostly under pKd 3.1 to 4
# Details: plain residues with an end cap or a label only (N-terminal biotin on a linker: ado-ado)
# Chain of LNX1_3, Q8TBB1 (Q8TBB1 500-596): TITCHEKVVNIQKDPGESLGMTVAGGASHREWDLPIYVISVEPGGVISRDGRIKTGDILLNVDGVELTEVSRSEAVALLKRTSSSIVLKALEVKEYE
row,Binder,pKd
1,B1,below the threshold
2,B2,below the threshold
3,B3,3.66

# Molecular target: DLG4_2, P78352
# Assay: holdup assay
# Set-up: key: below the threshold = too weak to quantify, mostly under pKd 3.1 to 4
# Details: plain residues with an end cap or a label only (N-terminal biotin on a linker: ado-ado)
# Chain of DLG4_2, P78352 (P78352 155-259): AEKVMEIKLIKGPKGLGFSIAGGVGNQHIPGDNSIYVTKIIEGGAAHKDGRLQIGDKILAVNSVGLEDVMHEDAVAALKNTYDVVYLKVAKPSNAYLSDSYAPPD
row,Binder,pKd
1,B1,3.6
2,B2,5.47
3,B3,3.79

# Molecular target: T6, APBA3_1, O96018
# Assay: holdup assay
# Set-up: key: below the threshold = too weak to quantify, mostly under pKd 3.1 to 4
# Details: plain residues with an end cap or a label only (N-terminal biotin on a linker: ado-ado)
row,Binder,pKd
1,B1,below the threshold
2,B2,below the threshold
3,B3,below the threshold

# Molecular target: ARHGEF12, Q9NZN5-2
# Assay: holdup assay
# Set-up: key: below the threshold = too weak to quantify, mostly under pKd 3.1 to 4
# Details: plain residues with an end cap or a label only (N-terminal biotin on a linker: ado-ado)
# Chain of ARHGEF12, Q9NZN5-2 (Q9NZN5 other isoform, or with tags, fused parts or gaps): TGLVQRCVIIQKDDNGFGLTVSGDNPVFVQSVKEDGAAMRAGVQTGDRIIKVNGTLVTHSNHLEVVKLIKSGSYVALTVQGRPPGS
row,Binder,pKd
1,B1,4.04
2,B2,3.74
3,B3,below the threshold

# Molecular target: T7, PDZD7_3, Q9H5P4
# Assay: holdup assay
# Set-up: key: below the threshold = too weak to quantify, mostly under pKd 3.1 to 4
# Details: plain residues with an end cap or a label only (N-terminal biotin on a linker: ado-ado)
row,Binder,pKd
1,B1,4.3
2,B2,5.19
3,B3,below the threshold

# Molecular target: T8, GRIP1_4, Q9Y3R0
# Assay: holdup assay
# Set-up: key: below the threshold = too weak to quantify, mostly under pKd 3.1 to 4
# Details: plain residues with an end cap or a label only (N-terminal biotin on a linker: ado-ado)
row,Binder,pKd
1,B1,below the threshold
2,B2,below the threshold
3,B3,below the threshold

# Molecular target: DLG1_1, Q12959
# Assay: holdup assay
# Set-up: key: below the threshold = too weak to quantify, mostly under pKd 3.1 to 4
# Details: plain residues with an end cap or a label only (N-terminal biotin on a linker: ado-ado)
row,Binder,pKd
1,B1,below the threshold
2,B2,5.06
3,B3,below the threshold

# Molecular target: DLG2_2, Q15700
# Assay: holdup assay
# Set-up: key: below the threshold = too weak to quantify, mostly under pKd 3.1 to 4
# Details: plain residues with an end cap or a label only (N-terminal biotin on a linker: ado-ado)
# Chain of DLG2_2, Q15700 (Q15700 189-283): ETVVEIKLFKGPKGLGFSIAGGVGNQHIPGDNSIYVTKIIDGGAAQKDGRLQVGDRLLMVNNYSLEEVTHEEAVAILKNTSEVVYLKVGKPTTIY
row,Binder,pKd
1,B1,3.49
2,B2,5.36
3,B3,3.57

# Molecular target: T9, HTRA3, P83110
# Assay: holdup assay
# Set-up: key: below the threshold = too weak to quantify, mostly under pKd 3.1 to 4
# Details: plain residues with an end cap or a label only (N-terminal biotin on a linker: ado-ado)
row,Binder,pKd
1,B1,below the threshold
2,B2,below the threshold
3,B3,below the threshold
